From patent EP0656117B1

How the values were obtained:
[1] = molecular target: interleukin 6 receptor gp 80 (soluble Human Recombinant IL-6R) (human) (UniProt P08887); assay: recovery of particles from balls coated with receptor, elution pH 3.6
[2] = molecular target: interleukin 6 receptor gp 80 (soluble Human Recombinant IL-6R) (human) (UniProt P08887); assay: panning of a 1:1 mixture of 176 Arg and 179 Ala phasmids on receptor in solid phase, elution pH 3.6
[3] = molecular target: interleukin 6 receptor gp 80 (soluble Human Recombinant IL-6R) (human) (UniProt P08887); assay: cell-based or functional assay
[4] = molecular target: interleukin 6 receptor gp 80 (soluble Human Recombinant IL-6R) (human) (UniProt P08887); assay: receptor binding assay, format not described
[5] = molecular target: interleukin 6 receptor gp 80 (soluble Human Recombinant IL-6R) (human) (UniProt P08887); assay: receptor binding assay, format not described; protein from bacterial periplasm
[6] = molecular target: interleukin 6 receptor gp 80 (soluble Human Recombinant IL-6R) (human) (UniProt P08887); assay: panning of a 1:100 mixture with M13K07 on polystyrene balls coated with shrIL-6R, elution pH 3.6 (eluate 1:10)

Chain of UniProt P08887 (P08887 20-355 limits assumed): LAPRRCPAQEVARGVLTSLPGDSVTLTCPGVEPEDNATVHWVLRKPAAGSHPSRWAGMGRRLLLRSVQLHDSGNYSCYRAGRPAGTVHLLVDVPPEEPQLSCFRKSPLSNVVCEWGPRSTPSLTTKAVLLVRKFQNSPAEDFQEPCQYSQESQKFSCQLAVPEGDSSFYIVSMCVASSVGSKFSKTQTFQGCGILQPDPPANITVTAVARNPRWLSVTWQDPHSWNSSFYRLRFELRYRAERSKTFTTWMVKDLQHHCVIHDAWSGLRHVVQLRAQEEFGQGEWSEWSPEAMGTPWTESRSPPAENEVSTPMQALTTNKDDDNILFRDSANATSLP

Substance: 176 Arg phasmid (hIL-6 mutant 176 Arg shown on phasmid) (from UniProt P05231 30-212)
- particles recovered relative to phasmid hIL-6 [1]: 3 relative
- ratio of particles in the eluate against 179 Ala phasmid [2]: 15 ratio (to 1)

Substance: M13K07 helper bacteriophage particles
- particles recovered relative to phasmid hIL-6 [1]: 0.18 relative

Substance: SAnt 1 (interleukin 6 Tyr31Asp/Gly35Phe/Ser118Arg/Val121Asp/Gln175Ile/Ser176Arg/Gln183Ala) (from UniProt P05231 29-212) (ligand)
- 50% inhibition of interleukin 6 activity on hepatoma cells Hep3B (wild type IL-6 4 ng/ml) [3]: 19 ng/mL
- 50% inhibition of interleukin 6 activity on hepatoma cells HepG2 (wild type IL-6 4 ng/ml) [3]: 32 ng/mL
- 50% inhibition of interleukin 6 activity on myeloma cells XG-1 (wild type IL-6 0.1 ng/ml) [3]: 22 ng/mL
- Receptor binding (% of wt) [4]: 406%

Substance: interleukin 6 helix C mutant 118 Arg / 121 Val (from UniProt P05231 29-212) (ligand)
- Receptor binding (% of wild type) [4]: 81%

Substance: wild type human interleukin 6 (from UniProt P05231 30-212) (ligand)
- Receptor binding (%) [5]: 100%
- Receptor binding (% of wild type) [4]: 100%

Substance: interleukin 6 helix D mutant of phage 5-8 (183 Ala) (from UniProt P05231 29-212) (ligand)
- Receptor binding (%) [5]: 240%

Substance: interleukin 6 helix D mutant of phage 5-4 (183 Tyr) (from UniProt P05231 29-212) (ligand)
- Receptor binding (%) [5]: 240%

Substance: IL-6 Tyr31Asp/Gly35Phe/Ser118Arg/Val121Asp (from UniProt P05231 29-212) (ligand)
- 50% inhibition of interleukin 6 activity on hepatoma cells Hep3B (wild type IL-6 4 ng/ml) [3]: 164 ng/mL
- 50% inhibition of interleukin 6 activity on hepatoma cells HepG2 (wild type IL-6 4 ng/ml) [3]: 132 ng/mL
- 50% inhibition of interleukin 6 activity on myeloma cells XG-1 (wild type IL-6 0.1 ng/ml) [3]: 190 ng/mL
- Inhibition of wild IL-6 (%) on human hepatoma cells (wild IL-6 4 ng/ml) at antagonist 16 ng/ml (4 X molar excess, 0.7 nM) [3]: 23%
- Inhibition of wild IL-6 (%) on human hepatoma cells (wild IL-6 4 ng/ml) at antagonist 60 ng/ml (15 X molar excess, 2.7 nM) [3]: 28%
- Inhibition of wild IL-6 (%) on human hepatoma cells (wild IL-6 4 ng/ml) at antagonist 164 ng/ml (41 X molar excess, 7.5 nM) [3]: 50%
- Inhibition of wild IL-6 (%) on human hepatoma cells (wild IL-6 4 ng/ml) at antagonist 500 ng/ml (125 X molar excess, 22.7 nM) [3]: 75%
- Inhibition of wild IL-6 (%) on human hepatoma cells (wild IL-6 4 ng/ml) at antagonist 1000 ng/ml (250 X molar excess, 45.5 nM) [3]: 82%
- Inhibition of wild IL-6 (%) on human hepatoma cells (wild IL-6 4 ng/ml) at antagonist 2000 ng/ml (500 X molar excess, 90.0 nM) [3]: 90%
- Inhibition of wild IL-6 (%) on human hepatoma cells (wild IL-6 4 ng/ml) at antagonist 4000 ng/ml (1000 X molar excess, 181.8 nM) [3]: 96%
- Inhibition of wild type interleukin 6 activity (growth of XG-1 human myeloma cells, wild type IL-6 0.1 ng/ml) at antagonist 3.3 ng/ml [3]: 6%
- Inhibition of wild type interleukin 6 activity (growth of XG-1 human myeloma cells, wild type IL-6 0.1 ng/ml) at antagonist 10 ng/ml [3]: 12%
- Inhibition of wild type interleukin 6 activity (growth of XG-1 human myeloma cells, wild type IL-6 0.1 ng/ml) at antagonist 30 ng/ml [3]: 25%
- Inhibition of wild type interleukin 6 activity (growth of XG-1 human myeloma cells, wild type IL-6 0.1 ng/ml) at antagonist 90 ng/ml [3]: 42%
- Inhibition of wild type interleukin 6 activity (growth of XG-1 human myeloma cells, wild type IL-6 0.1 ng/ml) at antagonist 270 ng/ml [3]: 64%
- Inhibition of wild type interleukin 6 activity (growth of XG-1 human myeloma cells, wild type IL-6 0.1 ng/ml) at antagonist 810 ng/ml [3]: 84%
- Inhibition of wild type interleukin 6 activity (growth of XG-1 human myeloma cells, wild type IL-6 0.1 ng/ml) at antagonist 2430 ng/ml [3]: 90%
- Inhibition of wild type interleukin 6 activity (growth of XG-1 human myeloma cells, wild type IL-6 0.1 ng/ml) at antagonist 7290 ng/ml [3]: 93%
- Receptor binding (% of wild type) [4]: 97%
- Receptor binding (% of wt) [4]: 97%

Substance: IL-6 Tyr31Asp/Gly35Phe/Ser118Leu/Val121Asp (from UniProt P05231 29-212) (ligand)
- Inhibition of wild type interleukin 6 activity (growth of XG-1 human myeloma cells, wild type IL-6 0.1 ng/ml) at antagonist 3.3 ng/ml [3]: 0%
- Inhibition of wild type interleukin 6 activity (growth of XG-1 human myeloma cells, wild type IL-6 0.1 ng/ml) at antagonist 10 ng/ml [3]: 3%
- Inhibition of wild type interleukin 6 activity (growth of XG-1 human myeloma cells, wild type IL-6 0.1 ng/ml) at antagonist 30 ng/ml [3]: 10%
- Inhibition of wild type interleukin 6 activity (growth of XG-1 human myeloma cells, wild type IL-6 0.1 ng/ml) at antagonist 90 ng/ml [3]: 31%
- Inhibition of wild type interleukin 6 activity (growth of XG-1 human myeloma cells, wild type IL-6 0.1 ng/ml) at antagonist 270 ng/ml [3]: 53%
- Inhibition of wild type interleukin 6 activity (growth of XG-1 human myeloma cells, wild type IL-6 0.1 ng/ml) at antagonist 810 ng/ml [3]: 71%
- Inhibition of wild type interleukin 6 activity (growth of XG-1 human myeloma cells, wild type IL-6 0.1 ng/ml) at antagonist 2430 ng/ml [3]: 76%
- Inhibition of wild type interleukin 6 activity (growth of XG-1 human myeloma cells, wild type IL-6 0.1 ng/ml) at antagonist 7290 ng/ml [3]: 81%
- Receptor binding (% of wild type) [4]: 63%

Substance: interleukin 6 helix A and C mutant 31 Asp / 35 Phe / 118 Arg / 121 Val (from UniProt P05231 29-212) (ligand)
- Receptor binding (% of wild type) [4]: 66%

Substance: interleukin 6 mutant Gln175Ile/Gln183Ala (phage 5-2) (from UniProt P05231 29-212) (ligand)
- Receptor binding (%) [5]: 260%

Substance: hIL-6 phasmid (phage particle with hIL6-pIII fusion molecules) (from UniProt P05231 30-212)
- particles recovered relative to phasmid hIL-6 [1]: 1 relative
- enrichment with respect to M13K07 [6]: 10 fold

Substance: interleukin 6 helix D mutant of phage 4-8 (181 Ile, 183 Asn) (from UniProt P05231 29-212) (ligand)
- Receptor binding (%) [5]: 100%

Substance: interleukin 6 mutant Gln175Ile/Ser176Arg/Gln183Ala (from UniProt P05231 29-212) (ligand)
- Receptor binding (%) [5]: 450%

Substance: IL-6 Ser118Arg/Val121Asp (from UniProt P05231 29-212) (ligand)
- Receptor binding (% of wild type) [4]: 66%

Substance: IL-6 Tyr31Asp/Gly35Phe/Ser118Phe/Val121Asp (from UniProt P05231 29-212) (ligand)
- Inhibition of wild type interleukin 6 activity (growth of XG-1 human myeloma cells, wild type IL-6 0.1 ng/ml) at antagonist 3.3 ng/ml [3]: 0%
- Inhibition of wild type interleukin 6 activity (growth of XG-1 human myeloma cells, wild type IL-6 0.1 ng/ml) at antagonist 10 ng/ml [3]: 7%
- Inhibition of wild type interleukin 6 activity (growth of XG-1 human myeloma cells, wild type IL-6 0.1 ng/ml) at antagonist 30 ng/ml [3]: 18%
- Inhibition of wild type interleukin 6 activity (growth of XG-1 human myeloma cells, wild type IL-6 0.1 ng/ml) at antagonist 90 ng/ml [3]: 35%
- Inhibition of wild type interleukin 6 activity (growth of XG-1 human myeloma cells, wild type IL-6 0.1 ng/ml) at antagonist 270 ng/ml [3]: 59%
- Inhibition of wild type interleukin 6 activity (growth of XG-1 human myeloma cells, wild type IL-6 0.1 ng/ml) at antagonist 810 ng/ml [3]: 84%
- Inhibition of wild type interleukin 6 activity (growth of XG-1 human myeloma cells, wild type IL-6 0.1 ng/ml) at antagonist 2430 ng/ml [3]: 90%
- Inhibition of wild type interleukin 6 activity (growth of XG-1 human myeloma cells, wild type IL-6 0.1 ng/ml) at antagonist 7290 ng/ml [3]: 95%
- Receptor binding (% of wild type) [4]: 76%

Substance: 179 Ala phasmid (hIL-6 mutant 179 Ala shown on phasmid) (from UniProt P05231 29-212)
- particles recovered relative to phasmid hIL-6 [1]: 0.2 relative

Substance: interleukin 6 helix C mutant 118 Ser / 121 Asp (from UniProt P05231 29-212) (ligand)
- Receptor binding (% of wild type) [4]: 78%

Substance: interleukin 6 helix C mutant 118 Leu / 121 Asp (from UniProt P05231 29-212) (ligand)
- Receptor binding (% of wild type) [4]: 92%

Substance: interleukin 6 helix D mutant of phage 5-3 (175 Ile, 181 Val, 183 His) (from UniProt P05231 29-212) (ligand)
- Receptor binding (%) [5]: 80%
